Laboratory results taken from IntAct's records for PubMed 11781573.

B1: Erythropoietin receptor (Homo sapiens), P19235 (parent)
chain: MDHLGASLWPQVGSLCLLLAGAAWAPPPNLPDPKFESKAALLAARGPEELLCFTERLEDLVCFWEEAASAGVGPGNYSFSYQLEDEPWKLCRLHQAPTARGAVRFWCSLPTADTSSFVPLELRVTAASGAPRYHRVIHINEVVLLDAPVGLVARLADESGHVVLRWLPPPETPMTSHIRYEVDVSAGNGAGSVQRVEILEGRTECVLSNLRGRTRYTFAVRARMAEPSFGGFWSAWSEPVSLLTPSDLDPLILTLSLILVVILVLLTVLALLSHRRALKQKIWPGIPSPESEFEGLFTTHKGNFQLWLYQNDGCLWWSPCTPFTEDPPASLEVLSERCWGTMQAVEPGTDDEGPLLEPVGSEHAQDTYLVLDKWLLPRNPPSEDLPGPGGSVDIVAMDEGSEASSCSSALASKPSPEGASAASFEYTILDPSSQLLRPWTLCPELPPTPPHLKYLYLVVSDSGISTDYSSGDSQGAQGGLSDGPYSNPYENSLIPAAEPLPPSYVACS
partner: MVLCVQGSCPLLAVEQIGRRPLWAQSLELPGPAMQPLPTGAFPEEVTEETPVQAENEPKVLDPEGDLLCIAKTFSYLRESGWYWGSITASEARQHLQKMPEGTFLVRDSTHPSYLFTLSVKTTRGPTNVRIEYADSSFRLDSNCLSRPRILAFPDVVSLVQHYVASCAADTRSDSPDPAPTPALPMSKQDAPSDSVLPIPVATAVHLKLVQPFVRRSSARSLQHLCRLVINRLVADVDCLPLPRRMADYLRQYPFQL
B2: Erythropoietin receptor (Homo sapiens), P19235 (parent)
chain: B1 chain

Variants of: B1
Settings: with cish_mouse Cish

Row | effect of a mutation on the interaction | Variant
1 | decreasing interaction | Y426F

Variants of: B2
Settings: with socs2_human SOCS2, O14508
Sequence of socs2_human SOCS2, O14508 (O14508 whole entry): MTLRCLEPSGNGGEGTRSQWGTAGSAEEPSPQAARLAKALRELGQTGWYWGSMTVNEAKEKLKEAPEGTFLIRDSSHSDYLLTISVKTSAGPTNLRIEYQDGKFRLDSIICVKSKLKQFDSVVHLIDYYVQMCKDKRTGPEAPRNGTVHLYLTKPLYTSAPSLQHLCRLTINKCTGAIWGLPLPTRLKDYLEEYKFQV

Row | effect of a mutation on the interaction | Variant
2 | decreasing interaction | Y426F
